Biological target: the molecule itself
Experiment: SEC-MALS

B1: LOV-HK (blue light-activated histidine kinase from Brucella abortus), construct 15-489 (enzyme)
chain: MALSQATDPFRAAVEFTLMPMLITNPHLPDNPIVFANPAFLKLTGYEADEVMGRNCRFLQGHGTDPAHVRAIKSAIAAEKPIDIDIINYKKSGEAFWNRLHISPVHNANGRLQHFVSSQLDVTLELSRLVELEKERKTLSIETARSKDQLDYIVEVANIGFWTREFYSGKMTCSAECRRIYGFTPDEPVHFDTILDLVVLEDRMTVVQKAHQAVTGEPYSIEYRIVTRLGETRWLETRAKALTGENPLVLGIVQDVTERKKAEANKALVSREIAHRFKNSMAMVQSIANQTLRNTYDPEQANRLFSERLRALSQAHDMLLKENWAGATIQQICATALAPFNSTFANRIHMSGPHLLVSDRVTVALSLAFYELATNAVKYGALSNEKGVINITWAIMEDKGEKKFHMRWAESRGPEVMQPARRGFGQRLLHSVLAEELKAKCDVEFAASGLLIDVLAPITPEVFPGMGHNVPEQRIA
notes: also called pET-24a-LOVHK-15-489
  stoichiometry N: 2

— paper PMC6171537 (Biochemistry and Biophysics Reports, 2018)
